Data reported in paper PMC9482650, “Quantitative fragmentomics allow affinity mapping of interactomes” (Nature Communications, 2022).

Tests used:
Test in all cases: holdup assay
Parameters in all cases: key: below the threshold = too weak to quantify, mostly under pKd 3.1 to 4
Conditions in all cases: plain residues with an end cap or a label only (N-terminal biotin on a linker: ado-ado)
LIN7B, Q9HAP6 = molecular target: T1, LIN7B, Q9HAP6
T1 sequence (Q9HAP6 88-185, limits assumed, looked up): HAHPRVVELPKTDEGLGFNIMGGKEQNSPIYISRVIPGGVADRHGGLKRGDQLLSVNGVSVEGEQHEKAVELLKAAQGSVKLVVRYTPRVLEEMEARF

HTRA1, Q92743 = molecular target: HTRA1, Q92743
HTRA1, Q92743, sequence (Q92743 360-477): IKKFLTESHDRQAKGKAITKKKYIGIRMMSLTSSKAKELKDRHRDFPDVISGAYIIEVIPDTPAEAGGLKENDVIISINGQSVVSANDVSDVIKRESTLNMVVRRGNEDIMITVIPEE

PCLO, Q9Y6V0 = molecular target: T2, PCLO, Q9Y6V0
T2 sequence (Q9Y6V0 4491-4600, limits assumed, looked up): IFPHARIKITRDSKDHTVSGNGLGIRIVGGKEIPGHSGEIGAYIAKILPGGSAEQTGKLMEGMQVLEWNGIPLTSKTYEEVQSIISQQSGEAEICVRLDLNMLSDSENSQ

LNX2_2, Q8N448 = molecular target: T3, LNX2_2, Q8N448
T3 sequence (Q8N448 334-432, limits assumed, looked up): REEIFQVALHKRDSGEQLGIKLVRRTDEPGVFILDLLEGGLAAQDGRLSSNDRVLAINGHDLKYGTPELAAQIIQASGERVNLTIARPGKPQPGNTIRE

FRMPD2_1, Q68DX3 = molecular target: FRMPD2_1, Q68DX3
FRMPD2_1, Q68DX3, sequence (Q68DX3 770-861): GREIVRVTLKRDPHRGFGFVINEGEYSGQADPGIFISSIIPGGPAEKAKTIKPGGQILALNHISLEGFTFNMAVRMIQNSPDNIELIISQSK

SNTG2, Q9NY99 = molecular target: T4, SNTG2, Q9NY99
T4 sequence (Q9NY99 68-166, limits assumed, looked up): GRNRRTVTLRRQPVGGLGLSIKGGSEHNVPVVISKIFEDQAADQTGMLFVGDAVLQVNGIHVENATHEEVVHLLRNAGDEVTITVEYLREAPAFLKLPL

PDZRN3_1, Q9UPQ7 = molecular target: T5, PDZRN3_1, Q9UPQ7
T5 sequence (Q9UPQ7 244-349, limits assumed, looked up): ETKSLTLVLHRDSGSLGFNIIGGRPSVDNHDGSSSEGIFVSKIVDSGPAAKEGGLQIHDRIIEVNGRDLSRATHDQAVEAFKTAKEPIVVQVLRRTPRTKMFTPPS

DLG3_1, Q92796 = molecular target: T6, DLG3_1, Q92796
T6 sequence (Q92796 125-227, limits assumed, looked up): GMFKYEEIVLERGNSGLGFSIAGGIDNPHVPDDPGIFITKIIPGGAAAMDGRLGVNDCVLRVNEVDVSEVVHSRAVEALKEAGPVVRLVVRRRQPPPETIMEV

IL16_1, Q14005 = molecular target: IL16_1, Q14005
IL16_1, Q14005, sequence (Q14005 210-306): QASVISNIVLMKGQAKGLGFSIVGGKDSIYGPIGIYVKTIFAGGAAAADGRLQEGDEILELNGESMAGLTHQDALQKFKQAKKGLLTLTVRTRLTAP

IL16_3, Q14005 = molecular target: IL16_3, Q14005
IL16_3, Q14005, sequence (Q14005 1107-1207): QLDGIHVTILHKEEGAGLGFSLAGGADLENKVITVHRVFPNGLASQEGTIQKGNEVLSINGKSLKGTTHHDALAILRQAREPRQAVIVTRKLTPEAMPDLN

NHERF4_1, Q86UT5-2 = molecular target: NHERF4_1, Q86UT5-2
NHERF4_1, Q86UT5-2, sequence (Q86UT5 other isoform, or with tags, fused parts or gaps): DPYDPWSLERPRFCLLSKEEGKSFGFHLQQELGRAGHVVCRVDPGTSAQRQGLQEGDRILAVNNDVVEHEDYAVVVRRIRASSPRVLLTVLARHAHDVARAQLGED

SNTA1, Q13424 = molecular target: T7, SNTA1, Q13424
T7 sequence (Q13424 82-180, limits assumed, looked up): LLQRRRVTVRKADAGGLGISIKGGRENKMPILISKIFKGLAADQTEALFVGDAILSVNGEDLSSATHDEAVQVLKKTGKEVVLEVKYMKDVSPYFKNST

GRIP2_3, Q9C0E4 = molecular target: GRIP2_3, Q9C0E4
GRIP2_3, Q9C0E4, sequence (Q9C0E4 238-339): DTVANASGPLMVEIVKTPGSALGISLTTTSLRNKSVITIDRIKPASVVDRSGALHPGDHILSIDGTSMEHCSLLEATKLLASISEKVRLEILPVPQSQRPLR

IL16_4, Q14005 = molecular target: IL16_4, Q14005
IL16_4, Q14005, sequence (Q14005 1229-1329): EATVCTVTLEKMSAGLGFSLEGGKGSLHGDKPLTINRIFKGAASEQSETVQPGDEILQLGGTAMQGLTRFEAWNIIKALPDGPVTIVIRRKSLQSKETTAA

PARD3_3, Q8TEW0 = molecular target: PARD3_3, Q8TEW0
PARD3_3, Q8TEW0, sequence (Q8TEW0 582-685): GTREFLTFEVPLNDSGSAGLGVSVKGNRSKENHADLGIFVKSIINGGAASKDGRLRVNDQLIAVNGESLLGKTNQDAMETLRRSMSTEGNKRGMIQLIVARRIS

RHPN1, Q8TCX5 = molecular target: T8, RHPN1, Q8TCX5
T8 sequence (Q8TCX5 508-602, limits assumed, looked up): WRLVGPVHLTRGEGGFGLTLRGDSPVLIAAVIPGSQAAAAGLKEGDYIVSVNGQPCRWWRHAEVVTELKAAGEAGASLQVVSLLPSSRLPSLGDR

TX1BP3, O14907 = molecular target: T9, TX1BP3, O14907
T9 sequence (O14907 10-122, limits assumed, looked up): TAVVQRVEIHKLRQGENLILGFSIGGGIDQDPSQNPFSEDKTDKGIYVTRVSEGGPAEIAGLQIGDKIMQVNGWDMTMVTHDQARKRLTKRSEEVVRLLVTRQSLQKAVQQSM

DLG4_3, P78352 = molecular target: DLG4_3, P78352
DLG4_3, P78352, sequence (P78352 306-403): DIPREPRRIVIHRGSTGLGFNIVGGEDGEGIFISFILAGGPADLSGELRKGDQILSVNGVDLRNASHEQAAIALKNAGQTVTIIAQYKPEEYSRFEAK

MPP2, Q14168 = molecular target: T10, MPP2, Q14168
T10 sequence (Q14168 180-250, limits assumed, looked up): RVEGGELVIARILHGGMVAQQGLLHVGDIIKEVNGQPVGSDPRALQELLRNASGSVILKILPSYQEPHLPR

FRMPD1, Q5SYB0 = molecular target: T11, FRMPD1, Q5SYB0
T11 sequence (Q5SYB0 52-145, limits assumed, looked up): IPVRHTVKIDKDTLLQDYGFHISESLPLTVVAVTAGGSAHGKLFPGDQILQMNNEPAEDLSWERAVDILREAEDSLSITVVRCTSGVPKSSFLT

HTRA2, O43464 = molecular target: HTRA2, O43464
HTRA2, O43464, sequence (O43464 355-458): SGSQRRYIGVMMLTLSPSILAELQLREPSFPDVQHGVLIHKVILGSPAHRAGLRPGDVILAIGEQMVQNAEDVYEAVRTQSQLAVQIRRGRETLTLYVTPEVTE

Inadl_4, Q8NI35 = molecular target: Inadl_4, Q8NI35
Inadl_4, Q8NI35, sequence (Q8NI35 547-651): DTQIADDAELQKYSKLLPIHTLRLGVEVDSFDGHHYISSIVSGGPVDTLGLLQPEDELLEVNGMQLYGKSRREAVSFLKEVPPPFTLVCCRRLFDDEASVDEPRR

LIMK2, P53671 = molecular target: LIMK2, P53671
LIMK2, P53671, sequence (P53671 143-248): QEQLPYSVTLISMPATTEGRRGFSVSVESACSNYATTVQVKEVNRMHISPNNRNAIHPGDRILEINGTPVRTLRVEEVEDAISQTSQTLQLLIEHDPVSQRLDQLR

PDLIM1, O00151 = molecular target: PDLIM1, O00151
PDLIM1, O00151, sequence (O00151 1-87): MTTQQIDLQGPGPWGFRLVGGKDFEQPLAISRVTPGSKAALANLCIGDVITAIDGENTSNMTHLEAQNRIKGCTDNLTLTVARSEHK

Inadl_8, Q8NI35 = molecular target: Inadl_8, Q8NI35
Inadl_8, Q8NI35, sequence (Q8NI35 1425-1530): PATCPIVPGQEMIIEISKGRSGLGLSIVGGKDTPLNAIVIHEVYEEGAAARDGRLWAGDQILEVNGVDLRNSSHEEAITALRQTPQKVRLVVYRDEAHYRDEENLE

SNX27, Q96L92 = molecular target: SNX27, Q96L92
DLG4_2, P78352 = molecular target: DLG4_2, P78352
DLG4_2, P78352, sequence (P78352 155-259): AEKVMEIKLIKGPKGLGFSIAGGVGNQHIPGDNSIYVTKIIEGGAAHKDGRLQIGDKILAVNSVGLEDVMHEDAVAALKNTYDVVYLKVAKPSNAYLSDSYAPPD

Measured: pKd

DSATVRTYSC [PPFIA1, Q13136]
3.66: HTRA2, O43464
4.49: FRMPD2_1, Q68DX3
3.98: NHERF4_1, Q86UT5-2
3.54: IL16_4, Q14005
3.7: LIN7B, Q9HAP6
4.02: LNX2_2, Q8N448
4.27: HTRA1, Q92743
below the threshold: all other assays above

PAPGQHTTQI [STK16, O75716]
4.35: RHPN1, Q8TCX5
3.87: DLG4_2, P78352
4.27: SNX27, Q96L92
3.92: LIN7B, Q9HAP6
4.12: TX1BP3, O14907
below the threshold: all other assays above

PASAKGPLGV [CLDN19, Q8N6F1]
3.49: NHERF4_1, Q86UT5-2
3.55: IL16_4, Q14005
below the threshold: all other assays above

QFTLRHWLKV [SLC6A3, Q01959]
3.71: FRMPD2_1, Q68DX3
3.76: SNX27, Q96L92
4.06: HTRA2, O43464
3.87: MPP2, Q14168
4.84: LNX2_2, Q8N448
3.57: FRMPD1, Q5SYB0
4.45: HTRA1, Q92743
below the threshold: all other assays above
